Results from patent US20240141045A1 (PRECIGEN, published 2024).
Changes are numbered by the printed parent chain.

Assays:
TGF-β1 [1] = target: T1, TGF-β1 (UniProt P01137 279-390); experiment: cell-based or functional assay
PD-1 Fc fusion protein [2] = target: T2, PD-1 Fc fusion protein (UniProt Q15116 25-167, limits assumed); experiment: SPR (Biacore), PD1-Fc immobilised on CM5, 1:1 Langmuir model with mass transfer
T2 construct: Antigen immobilised on the CM5 chip in all PD-1 SPR assays; also called PD-1 fused to human Fc region; PD-1-Fc antigen; not shown: human Fc region
Procedure: PD1-Fc antigen and reference antigen was immobilized on Biacore CM5 surface. […] Kinetics data was evaluated for 1:1 model: Langmuir with mass transfer.

TGF-β3 [3] = target: T3, TGF-β3 (UniProt P10600 301-412); experiment: cell-based or functional assay
T3 sequence (looked up): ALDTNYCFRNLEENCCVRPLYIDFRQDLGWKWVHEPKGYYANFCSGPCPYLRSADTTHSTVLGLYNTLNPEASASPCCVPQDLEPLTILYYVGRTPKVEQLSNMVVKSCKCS

TGF-β2 = target: T4, TGF-β2 (UniProt P61812 303-414); experiment: SPR (Biacore 3000), fusion protein immobilised on CM5 chip, TGF-β2 injected
T4 sequence (looked up): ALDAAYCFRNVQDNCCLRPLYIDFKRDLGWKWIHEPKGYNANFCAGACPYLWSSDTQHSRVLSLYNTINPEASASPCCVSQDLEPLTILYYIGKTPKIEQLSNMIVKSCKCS
Procedure: (§1) Surface plasma resonance (SPR) analysis was performed using Biacore3000, CM5 chip, an amine-coupling kit, 10×HBS-P running buffer and Glycine for regeneration (GE Healthcare). […] Dissociation was allowed to proceed followed by a pulse of 10 mM Glycine (pH 1.5) for regeneration of the chip surface.

TGF-β1 [4] = target: T1, TGF-β1; experiment: cell-based or functional assay; remark: listed apart in the source
TGF-β3 [5] = target: T3, TGF-β3; experiment: SPR (Biacore 3000), fusion protein immobilised on CM5 chip, TGF-β3 injected
Procedure: as §1

TGF-β1 [6] = target: T1, TGF-β1; experiment: SPR (Biacore 3000), fusion protein immobilised on CM5 chip, TGF-β1 injected
Procedure: as §1

PD-1 Fc fusion protein [7] = target: T2, PD-1 Fc fusion protein; experiment: SPR (Biacore 3000), PD-1 Fc immobilised on CM5 chip, fusion protein injected
Procedure: as §1

[8] = target: T5, PD-1 (programmed cell death protein 1), on cells (UniProt Q15116 25-288, limits assumed); experiment: cell-based or functional assay
[9] = target: T5, PD-1 (programmed cell death protein 1), …; experiment: cell-based or functional assay; remark: listed apart in the source
PD-1 Fc fusion protein [10] = target: T2, PD-1 Fc fusion protein; experiment: SPR (Biacore 3000), recombinant PD-1 Fc immobilised on CM5 chip, fusion protein injected
Procedure: Surface plasma resonance (SPR) analysis was performed using Biacore3000, CM5 chip, an amine-coupling kit, 10×HBS-P running buffer and Glycine for. […] Dissociation was allowed to proceed followed by regeneration of the chip surface.

T1 sequence (P01137 279-390 limits assumed): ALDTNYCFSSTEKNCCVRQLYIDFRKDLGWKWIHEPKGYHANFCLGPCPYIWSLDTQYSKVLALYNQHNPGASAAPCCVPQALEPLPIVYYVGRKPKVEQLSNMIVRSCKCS
T2 sequence (Q15116 25-167 limits assumed): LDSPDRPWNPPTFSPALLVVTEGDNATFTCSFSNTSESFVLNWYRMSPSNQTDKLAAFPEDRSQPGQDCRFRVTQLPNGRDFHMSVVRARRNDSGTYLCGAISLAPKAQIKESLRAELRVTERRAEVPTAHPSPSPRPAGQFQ
T5 sequence (Q15116 25-288 limits assumed): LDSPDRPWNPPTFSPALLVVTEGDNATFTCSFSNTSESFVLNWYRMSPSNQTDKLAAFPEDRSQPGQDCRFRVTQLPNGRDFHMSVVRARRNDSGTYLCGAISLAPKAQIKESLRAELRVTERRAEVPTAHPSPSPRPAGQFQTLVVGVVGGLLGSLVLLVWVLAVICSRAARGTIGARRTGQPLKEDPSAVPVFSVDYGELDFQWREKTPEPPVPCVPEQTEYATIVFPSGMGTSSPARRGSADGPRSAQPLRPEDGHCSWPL

B1: Anti-PD1 (nVL1-nVH3).IgG4-TGFbRII (antibody)
heavy: QVQLVESGGGVVQPGRSLRLDCKASGITFSNSGMHWVRQAPGKGLEWVAVIWYDGSKRYYADSVKGRFTISRDNSKNTLFLQMNSLRAEDTAVYYCATNNDYWGQGTLVTVSSASTKGPSVFPLAPCSRSTSESTAALGCLVKDYFPEPVTVSWNSGALTSGVHTFPAVLQSSGLYSLSSVVTVPSSSLGTKTYTCNVDHKPSNTKVDKRVESKYGPPCPSCPAPEFLGGPSVFLFPPKPKDTLMISRTPEVTCVVVDVSQEDPEVQFNWYVDGVEVHNAKTKPREEQFNSTYRVVSVLTVLHQDWLNGKEYKCKVSNKGLPSSIEKTISKAKGQPREPQVYTLPPSQEEMTKNQVSLTCLVKGFYPSDIAVEWESNGQPENNYKTTPPVLDSDGSFFLYSRLTVDKSRWQEGNVFSCSVMHEALHNHYTQKSLSLSPGKGGGGSGGGGSIPPHVQKSVNNDMIVTDNNGAVKFPQLCKFCDVRFSTCDNQKSCMSNCSITSICEKPQEVCVAVWRKNDENITLETVCHDPKLPYHDFILEDAASPKCIMKEKKKPGETFFMCSCSSDECNDNIIFSEEYNTSNPD
light: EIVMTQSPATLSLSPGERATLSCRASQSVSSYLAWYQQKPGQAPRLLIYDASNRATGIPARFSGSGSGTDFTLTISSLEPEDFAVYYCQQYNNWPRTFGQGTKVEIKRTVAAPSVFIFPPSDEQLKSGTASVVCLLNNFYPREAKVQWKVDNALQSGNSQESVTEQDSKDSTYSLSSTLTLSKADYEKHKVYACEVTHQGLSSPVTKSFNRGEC
For B1, the “IC50, inhibition of TGF-β1 induced reporter gene activity (HEK-Blue TGF-β cells, SEAP)” value (from here on “IC50, inhibition”) (TGF-β1 [1]) was 10.7 pM and the Kd (PD-1 Fc fusion protein [2]) was 27.7 pM.

B2: Anti-PD1(VH6-VL5) IgG4-TGFβRII (antibody)
heavy: B1 heavy with N100D
light: not shown
notes: IgG4 antibody with TGFβRII ECD fused to the C-terminus of the heavy chain; also called anti-PD-1 IgG4 antibody (VH6-VL5)-TGFβRII fusion protein; VH6-IgG4(wt)-linker-ECD with VL5
In the case of B2, the “IC50; neutralisation of TGF-β3 signalling, HEK-Blue TGF-β reporter cells (SEAP, absorbance 620 nM)” value (TGF-β3 [3]) is reported as 6.7 pM, the Kd (TGF-β2) is reported as 859 pM and the “IC50; neutralisation of TGF-β1 signalling, HEK-Blue TGF-β reporter cells (SEAP, absorbance 620 nM)” value (TGF-β1 [4]) is reported as 14.9 pM. For the same binder, the Kd (TGF-β3 [5]) was 2.19 pM and the Kd (TGF-β1 [6]) was 5.22 pM.

B3: Anti-PD1 (nVL1-nVH8).IgG4-TGFbRII (antibody)
heavy: B1 heavy with Q1E, E6Q, D21S, K23A, I27F, N31S, S32Y, K57N, R58K, F80Y
light: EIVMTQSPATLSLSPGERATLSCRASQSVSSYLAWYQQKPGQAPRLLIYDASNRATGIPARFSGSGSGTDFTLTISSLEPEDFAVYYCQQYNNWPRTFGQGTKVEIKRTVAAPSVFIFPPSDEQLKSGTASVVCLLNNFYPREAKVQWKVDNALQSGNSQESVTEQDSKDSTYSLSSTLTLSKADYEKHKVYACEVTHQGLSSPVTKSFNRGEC
For B3, the “IC50, inhibition” value (TGF-β1 [1]) was 54.5 pM and the Kd (PD-1 Fc fusion protein [2]) was 321 pM.

B4: Anti-PD1 (nVL1-nVH7).IgG4-TGFbRII (antibody)
heavy: B1 heavy with I27F
light: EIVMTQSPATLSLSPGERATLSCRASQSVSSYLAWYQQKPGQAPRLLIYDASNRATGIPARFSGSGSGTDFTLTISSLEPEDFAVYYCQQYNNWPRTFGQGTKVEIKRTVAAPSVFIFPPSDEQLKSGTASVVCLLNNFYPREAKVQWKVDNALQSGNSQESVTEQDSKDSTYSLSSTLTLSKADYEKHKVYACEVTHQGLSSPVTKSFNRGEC
With B4 the “IC50, inhibition” value (TGF-β1 [1]) was 15.1 pM and the Kd (PD-1 Fc fusion protein [2]) was 147 pM.

B5: Anti-PD1(VH6-VL5) IgG1-TGFβRII (antibody)
VH: QVQLVESGGGVVQPGRSLRLDCKASGITFSNSGMHWVRQAPGKGLEWVAVIWYDGSKRYYADSVKGRFTISRDNSKNTLFLQMNSLRAEDTAVYYCATNDDYWGQGTLVTVSS
VL: EIVLTQSPATLSLSPGERATLSCRASQSVSSYLAWYQQKPGQAPRLLIYDASNRATGIPARFSGSGSGTDFTLTISSLEPEDFAVYYCQQSSNWPRTFGQGTKVEIK
chain: GGGGSGGGGSIPPHVQKSVNNDMIVTDNNGAVKFPQLCKFCDVRFSTCDNQKSCMSNCSITSICEKPQEVCVAVWRKNDENITLETVCHDPKLPYHDFILEDAASPKCIMKEKKKPGETFFMCSCSSDECNDNIIFSEEYNTSNPD
notes: not shown: light-chain constant region (not tied to the IgG1 format); copies: 2 + 2 + 2
B5 was tested, and the Kd (PD-1 Fc fusion protein [7]) was 7.64 pM, the “IC50; neutralisation of TGF-β3 signalling, HEK-Blue TGF-β reporter cells (SEAP, absorbance 620 nM)” value (TGF-β3 [3]) was 5.3 pM and the “IC50; neutralisation of TGF-β1 signalling, HEK-Blue TGF-β reporter cells (SEAP, absorbance 620 nM)” value (TGF-β1 [4]) was 12.7 pM. The “IC50; PD-1/PD-L1 blockade bioassay (PD-1 effector cells with PD-L1 aAPC/CHO-K1 cells, luciferase RLU)” value [8] was 9500 pM.

B6: Anti-PD1 (VH6-VL5) IgG1-ADA2 (antibody)
heavy (part 1 of 2): B5 VH
heavy (part 2 of 2): GGGGSGGGGSSIDETRAHLLLKEKMMRLGGRLVLNTKEELANERLMTLKIAEMKEAMRTLIFPPSMHFFQAKHLIERSQVFNILRMMPKGAALHLHDIGIVTMDWLVRNVTYRPHCHICFTPRGIMQFRFAHPTPRPSEKCSKWILLEDYRKRVQNVTEFDDSLLRNFTLVTQHPEVIYTNQNVVWSKFETIFFTISGLIHYAPVFRDYVFRSMQEFYEDNVLYMEIRARLLPVYELSGEHHDEEWSVKTYQEVAQKFVETHPEFIGIKIIYSDHRSKDVAVIAESIRMAMGLRIKFPTVVAGFDLVGHEDTGHSLHDYKEALMIPAKDGVKLPYFFHAGETDWQGTSIDRNILDALMLNTTRIGHGFALSKHPAVRTYSWKKDIPIEVCPISNQVLKLVSDLRNHPVATLMATGHPMVISSDDPAMFGAKGLSYDFYEVFMGIGGMKADLRTLKQLAMNSIKYSTLLESEKNTFMEIWKKRWDKFIADVATK
light: B5 VL
notes: also called anti-PD1 (VH6/VL5) hIgG1-ADA2; not shown: IgG1 (hIgG1) heavy chain constant region; light chain constant region
In the case of B6, the “EC50 (read off the curve); PD-1/PD-L1 blockade reporter bioassay (luciferase RLU)” value [9] is reported as roughly 0.6 µg/mL and the Kd (PD-1 Fc fusion protein [10]) is reported as 0.309 pM.

B7: Anti-PD1(VH6-VL5) scFv-TGFβRII (scFv)
chain 1: B5 VH
chain 2: B5 VL
chain 3: B5 chain
B7 was tested, and the Kd (PD-1 Fc fusion protein [7]) was 19700 pM.

B8: Anti-PD1(VH7-VL6) scFv-TGFβRII (scFv)
chain 1: QVQLVQSGVEVKKPGASVKVSCKASGYTFTNYYMYWVRQAPGQGLEWMGGINPSNGGTNFNEKFKNRVTLTTDSSTTTAYMELKSLQFDDTAVYYCARRDYRFDMGFDYWGQGTTVTVSS
chain 2: EIVLTQSPATLSLSPGERATLSCRASKGVSTSGYSYLHWYQQKPGQAPRLLIYLASYLESGVPARFSGSGSGTDFTLTISSLEPEDFAVYYCQHSRDLPLTFGGGTKVEIK
chain 3: B5 chain
B8 was tested, and the Kd (PD-1 Fc fusion protein [7]) was 7770 pM.
